{"source": "patent US20180311291A1", "about": "(PSIOXUS THERAPEUTICS, published 2018)", "binders": {"B1": {"name": "anti-VEGF ScFv with C-terminal His6 tag expressed from NG-78 infected cells (scFv)", "scFv": "EVQLVESGGGLVQPGGSLRLSCAASGYTFTNYGMNWVRQAPGKGLEWVGWINTYTGEPTYAADFKRRFTFSLDTSKSTAYLQMNSLRAEDTAVYYCAKYPHYYGSSHWYFDVWGQGTLVTVSSGGGGSGGGGSGGGGSDIQMTQSPSSLSASVGDRVTITCSASQDISNYLNWYQQKPGKAPKVLIYFTSSLHSGVPSRFSGSGSGTDFTLTISSLQPEDFATYYCQQYSTVPWTFGQGTKVEIKRHHHHHH", "notes": "also called NG-78 anti-VEGF ScFv"}, "B2": {"name": "anti-VEGF ScFv with C-terminal His6 tag expressed from NG-76 infected cells (scFv)", "scFv": "B1 scFv", "notes": "also called NG-76 anti-VEGF ScFv"}, "B3": {"name": "anti-VEGF full length IgG1 antibody secreted from NG-165 infected cells (antibody, V domains shown)", "VH": "EVQLVESGGGLVQPGGSLRLSCAASGYTFTNYGMNWVRQAPGKGLEWVGWINTYTGEPTYAADFKRRFTFSLDTSKSTAYLQMNSLRAEDTAVYYCAKYPHYYGSSHWYFDVWGQGTLVTVSS", "VL": "DIQMTQSPSSLSASVGDRVTITCSASQDISNYLNWYQQKPGKAPKVLIYFTSSLHSGVPSRFSGSGSGTDFTLTISSLQPEDFATYYCQQYSTVPWTFGQGTKVEIKR"}, "B4": {"name": "anti-VEGF full length antibody (human IgG1) secreted from NG-135 infected cells (antibody, V domains shown)", "VH": "B3 VH", "VL": "B3 VL", "notes": "also called SSA-Bev-PA"}}, "key": {"[1]": {"molecular_target": "T1, human VEGF-165 (human, UniProt P15692-4 27-191)", "T1 sequence (P15692 other isoform, or with tags, fused parts or gaps limits assumed)": "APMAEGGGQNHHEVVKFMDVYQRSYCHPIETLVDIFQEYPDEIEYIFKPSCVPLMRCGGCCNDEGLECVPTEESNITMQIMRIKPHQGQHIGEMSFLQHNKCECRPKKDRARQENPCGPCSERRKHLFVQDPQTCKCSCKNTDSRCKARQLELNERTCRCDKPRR", "experiment": "direct VEGF binding ELISA and competition ELISA with bevacizumab, HRP anti-His detection; 293F supernatant and lysate", "procedure": "The cells and media were harvested from the flask and the supernatant and cells were separated by centrifuging for 10 mins, 1000 rpm. The supernatant was collected and the remaining cell pellet resuspended in 1 ml of cell media before carrying out 3 freeze-thaw cycles to lyse the cells. Post-lysis the cell debris and media was separated by a second centrifugation step and the supernatant from the lysate was collected. The supernatants or lysates were diluted 1 in 2 in 3% BSA/PBS 0.05% tween. […] Samples were added to the plates at 100 μl/well and incubated for 1 hr VEGF bound ScFv was detected using HRP-conjugated polyclonal anti-His (Abcam ab1187) followed by TMB detection."}, "[2]": {"molecular_target": "T1, human VEGF-165", "experiment": "VEGF binding ELISA, HRP anti-His detection", "procedure": "Plates were washed between all subsequent binding steps with PBS 0.05% Tween 20. The plates were blocked for 1 hour at room temperature with 3% BSA in PBS 0.05% Tween 20.\nAD293 cells were seeded in 6 well culture plates at a density of 5e5 cells per well. […] Cells were cultured for 72 hrs before the supernatants were collected from the wells and centrifuged for 5 mins, 1200 rpm to remove cell debris. The clarified supernatants were then used for either VEGF binding ELISA or Western blot analysis. […] Samples were added to the plates at 100 μl/well and assay. The detection antibody, HRP conjugated polyclonal anti-His (Abcam ab1187) was then applied for 1 hr at room temperature before HRP detection was performed with HRP substrate solution 3.3.5.5′-teramethylethylenediamine (TMB, Thermo-Fisher). 1M HCl was used for stopping the reaction and the developed colour was measured at 450 nm on a plate reader."}, "[3]": {"molecular_target": "T2, recombinant PDL1-Fc (UniProt Q9NZQ7 19-239)", "T2 construct": "also called PDL1-Fc (R&D Systems, 156-B7-100); not shown: Fc part of the bought fusion protein", "T2 sequence (Q9NZQ7 19-239 limits assumed)": "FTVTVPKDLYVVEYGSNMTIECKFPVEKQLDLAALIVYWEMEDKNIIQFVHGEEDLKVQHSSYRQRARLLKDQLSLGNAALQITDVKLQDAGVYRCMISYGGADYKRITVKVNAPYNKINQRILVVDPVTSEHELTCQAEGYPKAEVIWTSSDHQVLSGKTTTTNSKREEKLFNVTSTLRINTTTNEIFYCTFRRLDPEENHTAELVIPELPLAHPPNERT", "experiment": "direct PD-L1 binding ELISA on PDL1-Fc coated plates; 10-fold concentrated supernatant diluted 1 in 2 to 1 in 2048; anti-kappa light chain detection"}, "[4]": {"molecular_target": "T3, recombinant CTLA4-Fc (UniProt P16410 37-162)", "T3 construct": "also called CTLA4-Fc (R&D Systems, 325-CT-200); not shown: Fc part of the bought fusion protein", "T3 sequence (P16410 37-162 limits assumed)": "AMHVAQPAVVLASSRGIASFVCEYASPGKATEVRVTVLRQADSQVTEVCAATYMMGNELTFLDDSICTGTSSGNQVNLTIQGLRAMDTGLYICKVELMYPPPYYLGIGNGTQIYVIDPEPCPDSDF", "experiment": "direct CTLA-4 binding ELISA on CTLA4-Fc coated plates; supernatant diluted 1 in 2 to 1 in 2048"}, "[5]": {"molecular_target": "T4, non-recombinant PD-L1 ligand expressed in a membrane environment on the surface of lung carcinoma cells (A549) (human, UniProt Q9NZQ7 19-290)", "T4 construct": "whole, on cells; also called cellular PD-L1; PD-L1 on IFNg stimulated A549 cells", "T4 sequence (Q9NZQ7 19-290)": "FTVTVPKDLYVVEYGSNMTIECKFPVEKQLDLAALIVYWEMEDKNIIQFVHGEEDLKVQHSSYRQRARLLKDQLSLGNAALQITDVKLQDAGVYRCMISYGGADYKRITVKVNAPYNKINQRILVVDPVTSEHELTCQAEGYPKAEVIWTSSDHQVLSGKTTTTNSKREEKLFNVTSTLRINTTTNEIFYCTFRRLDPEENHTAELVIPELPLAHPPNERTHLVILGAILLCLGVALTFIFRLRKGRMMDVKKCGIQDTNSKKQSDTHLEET", "experiment": "flow cytometry on A549 cells with or without IFNgamma stimulation; 50 ul concentrated supernatant; Alexa-fluor 488 anti-human IgG detection", "procedure": "A549 cells were either stimulated with 50 ng/ml human IFNγ to promote upregulation of PD-L1 expression on the cell surface or left unstimulated. […] The cells were washed again, resuspended in PBS/1% BSA and analysed with an Attune acoustic focusing cytometer (Life Technologies)."}}, "data": [{"binder": "B1", "values": [{"measurement": "binding result", "setting": "[1]", "result": "binds"}]}, {"binder": "B2", "values": [{"measurement": "binding result", "setting": "[2]", "result": "binds"}]}, {"binder": "B3", "values": [{"measurement": "binding result", "setting": "[3]", "result": "no binding"}, {"measurement": "binding result", "setting": "[4]", "result": "no binding"}]}, {"binder": "B4", "values": [{"measurement": "binding result", "setting": "[5]", "result": "no binding"}]}]}
